This is an account of results in the nanobody polyreactivity screen of Harvey et al. (2022).

A short description of the series: yeast display, Sf9 membrane polyspecificity reagent, FACS + sequencing; frameworks hold sequencing errors. The method, boiled down: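 A nanobody's polyreactivity label depends on the gate it was sorted from. Yeast display cells were stained with 10% biotinylated, detergent-solubilized Sf9 membrane reagent for 1 hour at 4 °C, enriched on streptavidin microbeads and sorted by FACS. The low and high (top ~1%) gates were set on anti-HA fluorescence for expression and streptavidin fluorescence for reagent binding.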
Turning to “QVQLVESGGGLGQAGGSLRLSCAASGGTFYAYAMGWYRQAPGKEREFVAAISRRGGSTYYADSVKGRFTISRDNAKNTVYLQMHSLKPEDNAVYYCKALYSSSPGAKPWGEYNYWGQGTQVTVSS”, the “polyreactivity (PSR sort gate)” value is given as “high polyreactivity”. The value for “QVQLVESGGGLGQAGGSLRLSCAASGLIIQPNAMGWYSPAPGKERELVAAISSSDGSTYYADSVKGRFTISRDNAKNTVYLQMNSLKREDSAVYYCAAGYYFQVEPDLVYIYSYEYWGQGTHVTVSS” was “low polyreactivity”; that for “QVQLVESGGGLGQAGGSLRLSCAASGRIFFHYAMGWYRPAPGKERELVATITTVGSTYYADSVKGRFTISRDNAKNTVYLQMNSLKPEDTAVYYCAARYISLSGDEYDYWGQGTQVTVSS” was “low polyreactivity”.

Turning to “QVQLVESGGGLGQAGGSLRLSCAASGRTFYDNAMGWYRPAPGKERELVAAISSSGSSTYYADSVKGRFTISLDNAKNTVYLQKNSLKPEDTAVYYCSASYTDYYFGFGTDVRYGYWGQGTQVTVSS”, the “polyreactivity (PSR sort gate)” value is listed as “high polyreactivity”.

Consider “QVQLVESGGGLGQAGGSLRLSCAASGSIFQPYAMGGYRQAPGKERELVAAISSSGGSTTYADSVKGRFTISRDNAKNTVYLQMNSLKPEDTAVYYCAAEYDGPYTWVDYFYHYGYWGQGTQVTVSS”, for which the “polyreactivity (PSR sort gate)” value was “low polyreactivity”. The value for “QVQLVESGGGLGQAGGSLRLSCAASGSTFEGYAMGWYRQAPGKERELVAAISSSGGRTYYADSVKGRFTISRDNAKNTVYLQMNSLKPEDTAVYYCAADVSTAAVRSDSWGQGTQVTVSS” was “low polyreactivity”. The value for “QVQLVESGGGLGQAGGSLRLSCAASGSTFTRYGMGWSRQAPGKERELVAAITTSGSSTYYADSVKGRFTISRDNAKNTVYLQMNSLKPEDTAVYYCAADWSSWGFDYWGQGTQVTVSS” was “low polyreactivity”; that for “QVQLVESGGGLGQAGGSLRLSCPASGITFVYYAMGWYRQSPGKERELVATITKSGVSTYYADSVKGRFTISRDNAKYTVYLQMNSLKPEDTAVYYCAKDVSYRFYWTYDYWGQGTQVTVSS” was “low polyreactivity”. The value for “QVQLVESGGGLGQAGGSLRLTCAASGSTFWYYAMGWYRQAPGKERELVAAITSGDSTYYADSVKGRFTISRDNAKKTVYLQMNSLKPEDTAVYYCAADLPWEDGYYFYSGYTEYDYWGQGTQVTVSS” was “low polyreactivity”. Turning to “QVQLVESGGGLGQAGGSLSLSCAASGFNFSHYAMGWYIPAPGKERELVAAITRGGSTKYADSVKGRFTISRDNAKNTVDLEMNSLKPEDTAVYYCAKDKTYRNVRGVGYWGQGTQVTVSS”, the “polyreactivity (PSR sort gate)” value was “high polyreactivity”. The value for “QVQLVESGGGLIQAVRSHRLSFAASGSTFRRYAMRWYRQEPGKEREISTSDGSTYYADSVKGRFTISRENAKNTVYLQMNSLKPEDTAVYYCAADGYRKLIEDITDDYCGQGTQVTVSS” was “low polyreactivity”; that for “QVQLVESGGGLIQPGGSLRLSCAASGSTFANNAMGWYRQAPGKESELVASISSDGSTNYADSVKGRFTISRDNAKNTVYLQMNSLKPEDTAVYYCAADWYYSADYFHFGYWGQGTQVTVSS” was “low polyreactivity”; that for “QVQLVESGGGLLQAGGILRLSCAASGRIFFANAMGWYRQAPGKERELVASITRRSGGTYYADSVKGRFTISRDNAKNTVYLQMNSLKPEDTAVYYCAARYTFPKALYYYWGQGTQVTVSS” was “high polyreactivity”.

Consider “QVQLVESGGGLLQAGGSHRLSCAASGILVYNAMGWYTQAPGKERELVAAISARGGRTYYADSVKGRFTISRDNAKNTVYLQMNSLKPEDSAVYYCATLETTGVNYWGQGTQVTVSS”, for which the “polyreactivity (PSR sort gate)” value was “high polyreactivity”. The entry for “QVQLVESGGGLLQAGGSLRISCAASGRTLFVYDMGWYRQAPGKERDLVAAITGDGSTNYADSVKGRFTISRDNAKNTVYLQMNSLKPEDPAVYYCNAGDRIGFWNTVEYNYWGQGTQVTVSS” is “low polyreactivity”; for “QVQLVESGGGLLQAGGSLRLICAASGFIFVTYAMGLYRQEPGKERELVAAITNSGGTTYYADSVKGRFTISRDNAKNTVYLQMNSLKPEDTAGYYCNKPYGAETAHREFDYWGQGTQVTVSS” it is “low polyreactivity”; for “QVQLVESGGGLLQAGGSLRLICAASGITFRYYTMGWYRQAPVKETELVAAITWSGSSTYYADSVKGRFTISRDNAKNTVYLQMNSLKPEDTAVYYCAKPYHQRSAKVDYWGQGTQVTVSS” it is “low polyreactivity”. The value for “QVQLVESGGGLLQAGGSLRLSCAASGFILNAYTMGWYRQAPGKERELVATITINGGSTYYADSVKGRFTISRDNAKNTVYLQMNSLKPEDTAVYYCNADYWYKYDYWGQGTQVTVSS” was “low polyreactivity”; that for “QVQLVESGGGLLQAGGSLRLSCAASGFTFRYYAMGWYRQAPGKERELVAAISRSGGSTYYADSVKGRFTISRDNAKNTVYLQMNSLKPEDTAVYYCAADDRYGSRYYYWGQGTQVTVTS” was “high polyreactivity”; that for “QVQLVESGGGLLQAGGSLRLSCAASGGTFSLNVMGWYRQAPGKEREFVATITYSGGSTYYADSVKGRFTISRDNAKNTVYLQMKSLKPEDTAVYYCAASFTYSQVTEPYGYWGQGSQVTVSS” was “low polyreactivity”. The entry for “QVQLVESGGGLLQAGGSLRLSCAASGHIFRGYTMGWYRPAPGKERELVATITWNGVSTFYADSVKGRFTISRDTAKNTVYLQMNSLKPEDTSVYYCAAYYASHDYSGFWSDTYEYWGQGTQVTVSS” is “low polyreactivity”; for “QVQLVESGGGLLQAGGSLRLSCAASGITFDGNAMGWYRQAPWKERELVAGISGSGGGTYYADSVKGRFTISRDNAKNTVYLQMNSLKPEDTEVYYCAADTSTSHAYDYWGQGTQVTVSS” it is “low polyreactivity”. For “QVQLVESGGGLLQAGGSLRLSCAASGLIFRSYAMGWYRQAPGKERDLVAAITDLFWSTYYADSVKGRFTISRDNAKNTVYLQMNSLKPEDTAVYYCARDDWVYTNVEMDYWGQGTQVTVSS”, the “polyreactivity (PSR sort gate)” value is recorded as “high polyreactivity”. The value for “QVQLVESGGGLLQAGGSLRLSCAASGLIFVVNDMGCYTQAPGKERELVAAISYSGSSTYGDSVKGRFTISRDNAKNTVYLQMNSMNPEDTAVYYCARGSTVRTRGVGYWGQGTLVTVSS” was “low polyreactivity”. The entry for “QVQLVESGGGLLQAGGSLRLSCAASGLTFAFYVMGWYRQAPGKERELVAAISASGASTYYADSVKGRFTISRDNAKNTVYLQMNSLKPEDTAVYYCAADYAVYSFTEFNYWGQGTQVTVSS” is “high polyreactivity”.

With “QVQLVESGGGLLQAGGSLRLSCAASGLTFSKNAMGWYRQATGKERELVATISYSSSRTNYADSVKGRFTISRDNAMNTVYLQMNFLKPEDTAVYYCAARVYKGWPTHYDYWGQGTQVTVSS”, the “polyreactivity (PSR sort gate)” value is “high polyreactivity”. With “QVQLVESGGGLLQAGGSLRLSCAASGRIFGWYAMGWYRQAPGKERELVAAISRGGTRTNYADSVKGRFTISRDNSKNTVYLQMNSLKPEDTAVYYCAAGGSWCQNGYWGQGTQVTVSS”, the “polyreactivity (PSR sort gate)” value is “high polyreactivity”. The entry for “QVQLVESGGGLLQAGGSLRLSCAASGRIFSIYAMGWYRPAPGKEREMVAAIRRGGSTSYADSVKGRFTISRDNAKNTVYLLMNSLKPEDTAVYYCAARLRYLGYDYWGQGTQVTVSS” is “high polyreactivity”.

As to “QVQLVESGGGLLQAGGSLRLSCAASGRIFYYYAMGWYRQAPGKEREFVARNRSSGGSTYADSVKGRFTISRDNAKNTVYLQMNSLKPEDTAVYYCARDGYTAVEYDYWGQGTQVTVSS”, the “polyreactivity (PSR sort gate)” value is listed as “low polyreactivity”.

Take “QVQLVESGGGLLQAGGSLRLSCAASGRNFTHNAMGWYRQAPRKERELVAAITSGGRTTYADSVKGRFTISRDNAKNTVYLQMNSLKPEDSAVYYCNADTGLGSLDFDKRDYWGQGTQVTVSS”: the “polyreactivity (PSR sort gate)” value was “low polyreactivity”. The value for “QVQLVESGGGLLQAGGSLRLSCAASGRTYYTNAMGWYRQAPGKERELVAAISRGGGRTYYADSVKGRFTISRDNAMNSVYLQMNSLKPEDTAVYYCAASPYQGQGREYYYWGQGTQVTESS” was “high polyreactivity”; that for “QVQLVESGGGLLQAGGSLRLSCAASGSIFESYAMGWYRQAPGKERELVAAITSSGDSTYYADSVKGRFTISRDNAKNTVYLQMNSLKPEDTAVYYCAKRVPTYISTAEWGSRYDYWGQGTQVTVSS” was “low polyreactivity”; that for “QVQLVESGGGLLQAGGSLRLSCAASGSILDGNAMGWNRQAPGKERELVAAISYSGGSTYYADSVKGRFTISRDNAKNTVYLQIYSLKPEDTAVYYCAAGSISTPGRGVDKPDAYVYWGQGTQVTVSS” was “low polyreactivity”. The value for “QVQLVESGGGLLQAGGSLRLSCAASGSILGPYAMGWYRQAPGKERELVAGIDATDGSTYYADSVKGRFTISRDNAKNTVYLQMNSLKPEDTAVYYCAAAPYAYYGEYNYWGQGTQVTVSS” was “low polyreactivity”; that for “QVQLVESGGGLLQAGGSLRLSCAASGSLFGGYAMAWYRQAPGKEREFGAAISGRGASTYYADSVKGRFTISRDNAKTTVYLQMNSLKPEDTAVYDCNARADGRIDGHSATYGYWGQGTQVTVSS” was “high polyreactivity”; that for “QVQLVESGGGLLQAGGSLRLSCAASGSTFEYNAMGWYRQAPGKERELVASSTNYADSVKGRFTISRDNAKNTVYLQMNSLKPEDTAVYYCAREQGVNRNHDNWGQGTQVTVSS” was “low polyreactivity”.

As to “QVQLVESGGGLLQAGGSLRLSCAASGSTFGYYAMGWYRQAPGKERELVAAITRSGTNTYYADSVKGRFTISRDNAKNTVYLQMNSLKPEDTAVYYCNAVSRRRSDYWGQGTQVTVSS”, the “polyreactivity (PSR sort gate)” value is “high polyreactivity”. The entry for “QVQLVESGGGLLQAGGSLRLSCAASGSTFVYYAMGWYRQAPGKERELVAAISRSGGNTYYADSVKGRITISRDNAKNTVYLQRNSLKPEDTAVYYSAARSYGVQYYYWGQGTKVTVSS” is “high polyreactivity”. The entry for “QVQLVESGGGLLQAGGSLRLSCPASGRIFDPYTMGSYRQAPGKERELVARITRRGGRTYYADSVKGRFTISRDNAKNTVYLQMNSLKPEDTAVYYCNADFSYRYYGAYDDWGQGTQVTVSS” is “high polyreactivity”; for “QVQLVESGGGLLQAGGSLRLSSAASVRIFPSYAMGWYRQARGKEREFVAAITRGGASTYYADSVKGRFTISRDNAKNTVYFEMNSLKPEVTAVYYCAKDAYRYGGFSWTTGMDYWGQGTQVTVSA” it is “high polyreactivity”.
